Results taken from publication PMC8445963.

Biological target: MYC-tagged Exo70 wild-type (in MTLn3 cells) (UniProt Q9UPT5)
Assay: proximity ligation assay
Conditions: N = 3 experiments

UniProt Q9UPT5, sequence (Q9UPT5 whole entry): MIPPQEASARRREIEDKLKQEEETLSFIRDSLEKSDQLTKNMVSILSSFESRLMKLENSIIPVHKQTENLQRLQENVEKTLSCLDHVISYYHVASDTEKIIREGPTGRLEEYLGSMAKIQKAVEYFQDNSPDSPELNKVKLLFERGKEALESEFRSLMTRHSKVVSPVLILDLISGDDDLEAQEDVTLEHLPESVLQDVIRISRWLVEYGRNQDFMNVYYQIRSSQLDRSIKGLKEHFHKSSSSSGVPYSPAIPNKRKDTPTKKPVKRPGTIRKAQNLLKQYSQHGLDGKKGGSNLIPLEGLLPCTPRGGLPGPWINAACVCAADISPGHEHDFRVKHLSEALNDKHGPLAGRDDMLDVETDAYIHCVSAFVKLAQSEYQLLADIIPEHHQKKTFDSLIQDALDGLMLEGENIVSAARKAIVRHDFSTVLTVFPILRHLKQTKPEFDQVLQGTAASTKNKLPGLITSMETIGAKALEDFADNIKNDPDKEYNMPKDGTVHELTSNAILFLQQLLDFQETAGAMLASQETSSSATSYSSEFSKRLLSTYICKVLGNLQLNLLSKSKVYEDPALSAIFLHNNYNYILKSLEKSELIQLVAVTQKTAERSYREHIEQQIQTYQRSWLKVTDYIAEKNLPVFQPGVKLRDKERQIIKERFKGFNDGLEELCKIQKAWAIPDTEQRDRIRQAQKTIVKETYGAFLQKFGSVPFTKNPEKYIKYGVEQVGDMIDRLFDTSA

Flag-tagged TC10 wild-type (in MTLn3 cells) P43L; E45V; Y46H; T49A; Y54C
other: % invadopodia with PLA spots at core (% invadopodia) (category: core, parent: est. 23, read off a plot): 16
other: % invadopodia with no PLA spots (none) (% invadopodia) (category: none, parent: est. 33, read off a plot): 55
other: % invadopodia with PLA spots at side (% invadopodia) (category: side, parent: est. 44, read off a plot): 29
